Values of other authors, collected in article PMC11969719, “Rapid synthesis of glycosylated insulins by flow-based peptide synthesis” (Chemical Science, 2025).

Details: ref [5c,18]
Description: To address this issue, we incorporated an isoacyl dipeptide unit at the Thr^A8-Ser^A9 position (superscripts indicate positions in the A-chain), following a previous report,[8b] as the isoacyl dipeptide improves both peptide solubility and synthetic efficiency.[19]

A-chain: insulin A-chain, 21-amino acid chain of human insulin
solubility (in words): poor solubility
